Laboratory results from patent US20230272011A1 (AVACTA LIFE SCIENCES, published 2023).

What was measured:
[1] = target: T1, human serum albumin (human, UniProt P02768 25-609); test: SPR (Biacore), immobilised HSA, Affimer analyte
T1 construct: mature; Bought protein; biotinylated in the Octet and HTRF assays; also called HSA; HuSA
Protocol: Affinities for mouse, human, and cynomolgus serum were also measured at pH 7.4 for four (4) AFFIMER® binders using surface plasmon resonance (SPR) (FIG. 5, Table 5). […] A concentration titration of AFFIMER® monomers was run as analyte at a flow rate of 30 μl/min or 60 μl/min. Fc2-1, Fc3-1 and Fc4-1 kinetic data was blank subtracted and fit to a 1:1 Langmuir binding model (BIAcore Evalution software; GE) to calculate KD values. […]

[2] = target: T1, human serum albumin; test: SPR (Biacore) binding response to HSA at pH 7.4, Affimer at 50 nM
Description: Final clones were sequence-verified, produced from E. coli, and affinity purified as described in Example 3.

[3] = target: T1, human serum albumin; test: Octet biolayer interferometry, biotinylated albumin on SA sensors, pH 6.0
Summary of the method: (§1)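 Biotinylated albumin was loaded on streptavidin sensors at 1 μg/ml for 600 s in PBS-T (0.01% Tween 20) + 1% casein at pH 6.0 or 7.4, 25° C, 1000 rpm. Kinetics came from a 1:1 global fit with reference-sensor subtraction.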

[4] = target: T1, human serum albumin; test: Biacore, immobilised HSA, pH 7.4
Protocol: (§2) Affinities for mouse, human, and cynomolgus serum were also measured at pH 7.4 for four (4) AFFIMER® binders using surface plasmon resonance (SPR) (FIG. 5, Table 5). […] A concentration titration of AFFIMER® monomers was run as analyte at a flow rate of 30 μl/min or 60 μl/min. Fc2-1, Fc3-1 and Fc4-1 kinetic data was blank subtracted and fit to a 1:1 Langmuir binding model (BIAcore Evalution software; GE) to calculate KD values.

[5] = target: canine serum albumin (canine, UniProt P49822 25-608); test: binding ELISA on coated albumin, pH 6.0, panel 'Canine SA Binding at pH 6.0'
[6] = target: T2, cynomolgus serum albumin (cynomolgus); test: BLI (Octet), biotinylated albumin on SA sensor, pH 7.4
T2 construct: also called CSA; cyno serum albumin
Summary of the method: as §1

[7] = target: T3, mouse serum albumin (mouse, UniProt P07724 25-608); test: as above
T3 construct: also called MSA
Summary of the method: as §1

[8] = target: T1, human serum albumin; test: as above
Summary of the method: as §1

[9] = target: T2, cynomolgus serum albumin; test: Octet biolayer interferometry, pH 7.4
Protocol: (§3) Biotinylated antigen was captured onto SA sensors at 1 μg/ml for 600 seconds in a buffer comprising PBS-T (0.01% Tween 20)+1% casein at either pH 6.0 or 7.4. Association was carried out for 300 seconds and dissociation for 600 seconds, and regeneration was performed using 10 mM glycine pH 1.5 (GE Healthcare) for 3×5 seconds. All steps were carried out at 1000 rpm and 25° C. Purified AFFIMER® polypeptide in two-fold serial dilutions was analyzed at a starting concentration of approximately 10× K_{D value}. Kinetics analyses were carried out using the Octet data analysis software, subtracting the reference sensor (loaded with antigen), aligning the Y-axis to baseline, and using inter-step correction to align association to dissociation. Savitzky-Golay filtering was applied and the data processed. Analysis of the data was carried out with a 1:1 model, global fit, Rₘₐₓ unlinked by sensor.
(§4) AFFIMER® polypeptides were incubated with AcTEV for 1 hour at 30° C. as recommend by the manufacturer (Invitrogen) and removal of cleaved His tag by binding NiNTA resin (Generon) and collecting the cleaved protein flow through. […] Pharmacokinetic profile of IV-injected His tag cleaved AFFIMER® protein compared to C-terminally His-tagged AFFIMER® protein was evaluated.

[10] = target: T3, mouse serum albumin; test: Octet biolayer interferometry, pH 7.4
Protocol: as §3, §4

[11] = target: T1, human serum albumin; test: binding ELISA on coated HSA, pH 7.4
Protocol: After saturation with 5% PBS Casein pH 7.5, plates were washed and a dilution of AFFIMER® polypeptides or controls were incubated for 90 minutes. Plates were then washed, and a biotinylated polyclonal antibody anti-cystatin A (R&D Systems) was added for 1 hour. Plates were washed and AFFIMER® polypeptides were detected using streptavidin-HRP. After a last washing step, TMB was added for the development of the experiment and the plates were read at 450 nm.

[12] = target: T1, human serum albumin; test: Biacore, immobilised HSA, pH 7.4; remark: listed apart in the source
Protocol: as §2
The AFFIMER® polypeptides were produced and purified from E. coli as described in Example 3.

[13] = target: T3, mouse serum albumin; test: binding ELISA on coated MSA, panel title 'Affimer binding to MSA, pH 7' (legend: pH 7.4)
Protocol: Human (Sigma-Aldrich); Cynomolgus and Mouse (Abcam); Equine (Abcam); Canine (Abcam); Mouse (Sigma-Aldrich); Rabbit (Sigma-Aldrich); Porcine (Sigma-Aldrich);, and Rat (Sigma-Aldrich) serum albumin were coated overnight on 96 well plates (Corning Costar) at 1 μg/ml in PBS at the appropriate pH (pH 6.0 or 7.4). Plates were saturated using 5% Casein (Sigma-Aldrich) buffer in PBS. […] Plates were then washed and AFFIMER® proteins were detected using a biotinylated polyclonal antibody anti-Cystatin (R&D System) for 90 minutes. After washing, streptavidin-HRP (Thermo Fisher Scientific) was added and incubated for 30 minutes.
Briefly, PD-1 was coated overnight on the plate at 1 μg/ml in carbonate buffer. Then plates were saturated using 5% Casein/PBS buffer. […] After saturation, the mix was added to the plates and incubated for 90 minutes. Plates were then washed and the detection polyclonal antibody, biotinylated anti-PD-L1, was added. After washing the plates, streptavidin-HRP was added for 30 minutes. After a final wash, development of the reaction was performed using TMB (Pierce) and the plates were read using a plate reader at 450 nm (FIG. 26C).

[14] = target: T1, human serum albumin; test: SPR (Biacore), immobilised HSA, Affimer analyte; remark: listed apart in the source

T3 sequence (P07724 25-608 limits assumed): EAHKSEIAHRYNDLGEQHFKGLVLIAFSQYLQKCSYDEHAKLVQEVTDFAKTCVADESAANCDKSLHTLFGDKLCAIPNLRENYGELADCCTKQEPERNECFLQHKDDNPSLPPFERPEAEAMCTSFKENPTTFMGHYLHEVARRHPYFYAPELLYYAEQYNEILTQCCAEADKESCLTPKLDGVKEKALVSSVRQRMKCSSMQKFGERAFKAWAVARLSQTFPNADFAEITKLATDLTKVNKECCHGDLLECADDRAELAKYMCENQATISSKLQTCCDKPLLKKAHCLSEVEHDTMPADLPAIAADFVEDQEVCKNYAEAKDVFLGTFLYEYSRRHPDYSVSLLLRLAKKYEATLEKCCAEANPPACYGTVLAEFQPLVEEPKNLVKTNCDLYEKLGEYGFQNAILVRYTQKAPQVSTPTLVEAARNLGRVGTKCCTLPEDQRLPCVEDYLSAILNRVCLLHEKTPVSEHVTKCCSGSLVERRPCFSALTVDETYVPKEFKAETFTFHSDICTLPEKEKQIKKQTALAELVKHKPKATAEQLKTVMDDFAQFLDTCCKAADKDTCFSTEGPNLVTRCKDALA
T2 sequence (A2V9Z4 25-608): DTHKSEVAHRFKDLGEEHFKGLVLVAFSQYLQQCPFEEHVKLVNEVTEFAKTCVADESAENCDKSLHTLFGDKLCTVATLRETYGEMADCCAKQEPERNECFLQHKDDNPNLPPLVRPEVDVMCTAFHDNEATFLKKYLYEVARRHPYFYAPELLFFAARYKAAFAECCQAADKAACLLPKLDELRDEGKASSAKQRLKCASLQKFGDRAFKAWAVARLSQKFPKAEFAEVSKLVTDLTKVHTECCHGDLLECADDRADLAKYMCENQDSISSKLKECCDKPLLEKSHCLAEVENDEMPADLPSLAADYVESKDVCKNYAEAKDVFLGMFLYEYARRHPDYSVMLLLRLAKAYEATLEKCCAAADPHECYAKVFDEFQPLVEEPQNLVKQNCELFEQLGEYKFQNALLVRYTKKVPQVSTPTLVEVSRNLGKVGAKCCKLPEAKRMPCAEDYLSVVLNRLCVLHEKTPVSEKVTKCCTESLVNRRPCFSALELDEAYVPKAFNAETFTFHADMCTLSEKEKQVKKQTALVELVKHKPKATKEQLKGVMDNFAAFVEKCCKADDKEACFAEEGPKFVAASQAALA
canine serum albumin, sequence (P49822 25-608 limits assumed): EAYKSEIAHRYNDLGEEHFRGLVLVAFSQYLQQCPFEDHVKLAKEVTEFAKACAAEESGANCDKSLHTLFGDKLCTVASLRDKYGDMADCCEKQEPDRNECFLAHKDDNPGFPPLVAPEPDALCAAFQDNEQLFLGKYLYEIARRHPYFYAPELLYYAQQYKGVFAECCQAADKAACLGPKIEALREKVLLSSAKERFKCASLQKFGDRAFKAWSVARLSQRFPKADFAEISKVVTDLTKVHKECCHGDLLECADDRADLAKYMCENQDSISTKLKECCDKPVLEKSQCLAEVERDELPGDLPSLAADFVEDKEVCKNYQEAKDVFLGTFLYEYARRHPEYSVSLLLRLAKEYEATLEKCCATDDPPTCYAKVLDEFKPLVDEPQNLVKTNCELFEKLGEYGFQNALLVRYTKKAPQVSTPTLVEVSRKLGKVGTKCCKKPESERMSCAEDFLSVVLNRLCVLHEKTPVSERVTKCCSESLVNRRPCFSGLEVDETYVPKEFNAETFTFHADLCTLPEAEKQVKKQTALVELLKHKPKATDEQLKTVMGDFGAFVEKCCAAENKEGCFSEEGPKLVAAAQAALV

B1: HSA-41 (designed binder)
chain: MIPRGLSEAKPATPEIQEIVDKVKPQLEEKTNETYGKLEAVQYKTQVLANFFQRRWPGSTNYYIKVRAGDNKYMHLKVFNGPWKFRNTDRGADRVLTGYQVDKNKDDELTGFHHHHHH
notes: also called HSA-41 parent; HSA-41 AH parent
- Kd [1]: 5.13 nM
- koff [1]: 0.00435 s⁻¹
- kon [1]: 848000 M⁻¹ s⁻¹
- binding response [2]: 36.8
- koff [3]: 0.00198 s⁻¹
- kon [3]: 278000 M⁻¹ s⁻¹
- Kd [4]: 3.34 nM
- koff [4]: 0.00563 s⁻¹
- kon [4]: 1.69e+06 M⁻¹ s⁻¹
- EC50 (read off the curve) [5]: ~2 nM
- Kd [6]: 71.5 nM
- Kd [7]: 47.9 nM
- Kd [8]: 5.2 nM
- Kd [9]: 209 nM
- Kd [10]: 82 nM
- EC50 [11]: 0.04 nM
- Kd [12]: 2.84 nM
- koff [12]: 0.00347 s⁻¹
- kon [12]: 1.22e+06 M⁻¹ s⁻¹
- EC50 (read off the curve) [13]: ~6 nM
- Kd [14]: 2.4 nM
- koff [14]: 0.00354 s⁻¹
- kon [14]: 1.48e+06 M⁻¹ s⁻¹
